Literature values as cited in article PMC6244792.
Where “and” joins values, the source holds several entries; their conditions need not be identical. Equal values may be shown once. Read-outs that look alike come from different tables or passages of the source.

What was measured:
[1] = biological target: LHCP L18 peptide (Arabidopsis thaliana); assay: ITC
[2] = biological target: RRKRp10 (cpSRP54 C-terminal peptide) (Arabidopsis thaliana) (UniProt P37107)
[3] = biological target: LHCP L11 peptide (Arabidopsis thaliana); assay: FA
[4] = biological target: cpSRP54 (Arabidopsis thaliana) (UniProt P37107); assay: FCS
[5] = biological target: LHCP L11 peptide (Arabidopsis thaliana); assay: FA; remark: listed apart in the source
[6] = biological target: Alb3 C-terminus (Arabidopsis thaliana) (UniProt Q8LBP4); assay: FA
[7] = biological target: cpSRP54 peptide RRKRp10 RRKRp10 (Arabidopsis thaliana) (UniProt P37107)
[8] = biological target: LHCP L18 peptide (Arabidopsis thaliana); assay: ITC; remark: listed apart in the source
[9] = biological target: cpSRP54 M domain (Arabidopsis thaliana) (UniProt P37107); assay: SPR
[10] = biological target: cpSRP54 (Arabidopsis thaliana) (UniProt P37107); assay: MST
[11] = biological target: cpFtsY (Arabidopsis thaliana) (UniProt O80842); assay: FRET
[12] = biological target: cpFtsY (Arabidopsis thaliana) (UniProt O80842); assay: FRET; remark: listed apart in the source
[13] = biological target: cpFtsY (Arabidopsis thaliana) (UniProt O80842); assay: FRET; remark: listed apart in the source

Chain of cpFtsY (Arabidopsis thaliana) (O80842 41-366): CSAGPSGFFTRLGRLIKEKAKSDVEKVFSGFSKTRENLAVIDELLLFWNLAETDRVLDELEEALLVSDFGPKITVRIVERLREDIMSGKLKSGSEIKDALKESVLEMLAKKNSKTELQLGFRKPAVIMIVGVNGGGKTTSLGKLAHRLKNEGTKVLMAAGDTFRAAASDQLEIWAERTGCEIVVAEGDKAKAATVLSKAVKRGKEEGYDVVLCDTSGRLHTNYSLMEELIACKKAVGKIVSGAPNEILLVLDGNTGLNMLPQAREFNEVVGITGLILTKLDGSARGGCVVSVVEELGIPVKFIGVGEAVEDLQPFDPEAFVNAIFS
Chain of cpSRP54 (P37107 76-564): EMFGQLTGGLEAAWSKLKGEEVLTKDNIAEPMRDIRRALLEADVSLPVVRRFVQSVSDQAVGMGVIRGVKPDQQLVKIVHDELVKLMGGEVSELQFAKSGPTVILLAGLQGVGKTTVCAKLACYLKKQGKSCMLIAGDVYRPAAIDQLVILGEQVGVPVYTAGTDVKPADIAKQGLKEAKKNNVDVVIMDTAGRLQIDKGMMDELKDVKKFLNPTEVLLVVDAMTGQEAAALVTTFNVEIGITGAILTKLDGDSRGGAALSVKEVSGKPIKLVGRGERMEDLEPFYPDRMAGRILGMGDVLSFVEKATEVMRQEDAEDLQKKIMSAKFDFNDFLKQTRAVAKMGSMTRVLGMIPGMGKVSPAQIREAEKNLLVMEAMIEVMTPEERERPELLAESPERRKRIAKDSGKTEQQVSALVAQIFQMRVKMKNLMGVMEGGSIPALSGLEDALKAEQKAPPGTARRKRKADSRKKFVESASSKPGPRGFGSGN
Chain of Alb3 C-terminus (Arabidopsis thaliana) (Q8LBP4 339-462): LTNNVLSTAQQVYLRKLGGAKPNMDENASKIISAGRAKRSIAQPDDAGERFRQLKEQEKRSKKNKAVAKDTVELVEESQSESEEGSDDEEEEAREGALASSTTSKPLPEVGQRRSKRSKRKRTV
Chain of cpSRP54 (Arabidopsis thaliana) (P37107 76-564): as the sequence (P37107 76-564) above
Chain of cpSRP54 NG domain (P37107 76-370): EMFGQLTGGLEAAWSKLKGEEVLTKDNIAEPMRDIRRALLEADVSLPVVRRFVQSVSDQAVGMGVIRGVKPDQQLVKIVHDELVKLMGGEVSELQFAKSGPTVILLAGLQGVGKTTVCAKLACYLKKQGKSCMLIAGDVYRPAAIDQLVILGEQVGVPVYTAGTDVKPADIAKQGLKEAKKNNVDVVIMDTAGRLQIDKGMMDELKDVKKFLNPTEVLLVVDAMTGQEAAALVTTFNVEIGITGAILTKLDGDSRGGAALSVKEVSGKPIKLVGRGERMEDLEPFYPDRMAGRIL
Chain of cpSRP54 M domain (Arabidopsis thaliana) (P37107 371-564): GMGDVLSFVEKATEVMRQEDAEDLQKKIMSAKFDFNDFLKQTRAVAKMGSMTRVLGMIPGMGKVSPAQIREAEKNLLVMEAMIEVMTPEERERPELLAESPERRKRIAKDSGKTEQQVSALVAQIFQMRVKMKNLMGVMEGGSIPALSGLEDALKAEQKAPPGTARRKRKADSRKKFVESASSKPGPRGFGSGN
Chain of RRKRp10 (cpSRP54 C-terminal peptide) (Arabidopsis thaliana) (P37107 whole entry, looked up, tested part not stated): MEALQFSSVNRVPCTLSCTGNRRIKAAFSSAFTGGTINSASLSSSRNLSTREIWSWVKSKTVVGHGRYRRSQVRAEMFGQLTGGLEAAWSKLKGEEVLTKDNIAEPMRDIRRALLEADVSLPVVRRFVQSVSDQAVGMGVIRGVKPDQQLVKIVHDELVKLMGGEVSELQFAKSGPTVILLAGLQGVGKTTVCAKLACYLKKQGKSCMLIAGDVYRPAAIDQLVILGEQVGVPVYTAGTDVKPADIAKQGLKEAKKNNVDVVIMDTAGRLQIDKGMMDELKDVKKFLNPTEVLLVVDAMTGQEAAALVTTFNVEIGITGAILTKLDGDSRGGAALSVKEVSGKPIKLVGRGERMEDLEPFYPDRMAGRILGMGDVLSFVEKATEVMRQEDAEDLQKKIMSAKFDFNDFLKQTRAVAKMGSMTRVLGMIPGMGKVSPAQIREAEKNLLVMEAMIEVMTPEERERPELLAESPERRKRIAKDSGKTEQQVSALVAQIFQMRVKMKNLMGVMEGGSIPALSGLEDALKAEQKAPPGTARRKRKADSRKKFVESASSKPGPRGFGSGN
Chain of cpSRP54 peptide RRKRp10 RRKRp10 (Arabidopsis thaliana) (P37107 whole entry, looked up, tested part not stated): as above

Row | Kd [1] | Kd [2] [nM] | Kd [3] [nM] | Kd [4] [nM] | Kd [5] [nM] | Kd [6] | Kd [7] [nM] | Kd [8] [nM] | Kd [9] [nM] | Kd [10] [nM] | Kd [11] [nM] | Kd [12] [nM] | Kd [13] [nM] | Substance
1 | 1170 nM and 322 nM | 390 | 22 | 95 | 11 | 18000 nM and 12000 nM and 15000 nM | 390 | 107 | 2.5 | 50 |  |  |  | cpSRP43 (from UniProt O22265)
2 |  |  |  |  |  |  |  |  |  |  | 2340 | 130 | 770 | cpSRP54 (from UniProt P37107)
3 |  |  |  |  |  |  |  |  |  |  | 12000 |  |  | cpSRP54 NG domain (from UniProt P37107)
